Among the data in patent EP4269437A1 are OD450, clone binding with PD-1 and OD450, PD-L1 binding with PD-1 values, retold here.

The labels stand for the following.
B1: NB192 (VHH)
VHH: EVQLVESGGGLVQAGGSLRLSCAASGRTFNGYGMGWFRQAPGKEREFVAAISWRDSSKYYADSVRDRFTASRDNAKNTVYLQMNSLKPEDTAVYYCRPYSDYVTYDPYDYDAWGQGTQVTVSS
B2: NB172 (VHH)
VHH: EVQLVESGGGLVQAGGSLRLSCTASGDTRLASAMGWYRQAPGKERELVAVITNSGLTHYADSVEGRFTISRDSAKNTVYLQMNSLKPEDTAVYYCNAGAPPPGGLGYDESDYWDQGTQVTVSS
B3: NB734 (VHH)
VHH: QVQLVETGGGLVQAGGSLRLSCAASGDTILFSAVGWHRQAPGKERELVAAITNSGVTYYADSVKGRFSISRDNAKNTVYLQMNSLKPEDTAVYYCNAGAPPPGEFGYDESDYWGQGTQVTVSS
B4: NB196 (VHH)
VHH: B3 VHH with A23T, I29N, V34M, V56M, S62V, S68T, I69L, E104G
B5: NB221 (VHH)
VHH: EVQLVESGGGLVQAGDSLRLSCAASGRTFSSVAMGWFRQAPGKEREFVAAISRSGGSAGYADSVKDRSTIARDNTKNTVYLQMNSLKPEDTAVYFCAASEYDFCSTHGCYDYWGQGTQVTISL
B6: NB223 (VHH)
VHH: EVQLVESGGGLVQAGGSLRLSCAASGRTFSSYGMGWFRQAPGKEREFVAAVNWSNSSAYYADSVKDRFTISSDNAKSTIYLQMNSLKPEDTAVYYCRPYSDYVTYDPDDYDYWGQGTQVTVSS
B7: NB222 (VHH)
VHH: QVQLVESGGGLVQAGGSLRLSCAASGGTFSNFNVGWFRQAPGKEREFVAASNWSAGTTHYSDSVKGRFTISRDNAANTAYLQMNSLRPDDTAVYYCNRVIRGTTYPDVYYGMDYWGKGTLVTVSS
B8: NB733 (VHH)
VHH: QVQLVESGGGLVQPGASLRLSCAAAGFTFSSWAMTWVRQAPGKGLEWVSAISSGSGEMADYADSVKGRFAISRDNAKNTLYLQMNNLQPEDTAMYYCAKGGYLTYANLGPGTQVTVSS
B9: NB171 (VHH)
VHH: QVQLVESGGGLVQAGGSLRLSCAASGRTFSSYAMGWFRQALGKEREWIAGVSMSGRTTYYAAPVKDRFTISRDNAKNTVTLQMNSLKPEDTAVYYCAAGRAQAEIPIMRAQEYDSWGQGTQVTVSS
B10: NB148 (VHH)
VHH: QVQLVESGGGLVQAGGSLRLSCAASGGTFSGSELGWFRQAPGKEREFVAGISRNGGTTGYSDSVKDRFTIARDNAKNTVYLQMNSLKPEDTAVYYCAAGLRAYYGDSYVDTMTENYNYWGQGTQVTVSS
B11: NB754 (VHH)
VHH: QLQLVESGGGLVQPGGSLRLSCAVSGFTFSSDAMNWYRQAPGKERELVASITIDGGSTNYADSVKGRFTISRDNAKNTLYLQMNSLKPEDTAVYYCNADRGIIIYGKTYWGQGTQVTVSS
B12: NB166 (VHH)
VHH: EVQVQESGGGLVQAGGSLTLSCAASGDTILISSIGWYRQAPGKERELVAAITNSGLTYYPDSVKGRFTISRDNAKNTVYLQMNNLKPEDTAVYYCNAGGPPPGGLGYDESDYWGQGTQVTVSS
B13: NB195 (VHH)
VHH: B12 VHH with Q5V, T19R, S33A, E44V, L56V, P60T, N83D, N84S, Q115P, Q118H
B14: NB139 (VHH)
VHH: EVQVVESGGGLVQTGGSLRLSCAASGDTALISAMGWYRQAPGKERELVAALTNTGITYYADSVKGRFTISRDNAKNTVYLQMNSLKPEDTAVYYCNAGAPPPGGLGYDESDYWGQGTQVTVSS
B15: NB189 (VHH)
VHH: QVKLEESGGGLVQAGGSLRLSCTASGGTFNSYAMGWFRQAPGKERESVAAINLSRGNTYYADSVKGRFTISRDNAKNTVYLQMNSLKPEDTAVYHCGVDRRQYGLGIPPLADHWGQGTQVTVSS
B16: NB159 (VHH)
VHH: QVQLVESGGGSVQAGDSLRISCEASGRTFMRYSMGWFRQASGKEREFVAAISWGGSSTYYADSVKGRFIISRDNTKNTVFLQMNSLKPEDTAVYYCAADTNPSGSWDRPTNEAEYDYWGQGTQVTVSS
B17: NB164 (VHH)
VHH: QVQLVESGGGLLQAGDSLRLSCIASGRTFSSYAMGWFRQAPGKEREFVAGINGNGRSQYYAEVVKDRFFISRDNAKNTVYLQMNSLKPEDTAVYYCAAEGHLGVPTVRSDEYDYWGQGTQVTVSS
B18: NB170 (VHH)
VHH: EVQLVESGGGLVQAGDSLRLSCAASGGTFGRLETGWFRQAPGKEREFVAAISWDGETSYADSVKGRFTISRDNAKNTMALQMNRLTPEDTAVYFCAARVILRAYKYWGQGTQVTVSS
B19: NB532 (VHH)
VHH: QVQLVETGGGLVQAGGSLRLSCAASGRTFSSYNMGWFRQAPGKEREFVAAISWSGGSQGYAAAVKDRFTISRDNAKNTVYLQMNSLKAEDTAVYYCAAKYHSGSYYYTSIRPEEYDYWGQGTQVTVSS
B20: NB735 (VHH)
VHH: EVQVVESGGGLVQPGGSLTLSCAVSGFTLDDYSIGWFRQAPGRAREAVSCTSNRDGSTYYEDSVKGRFTISRDNAKNTVYLQMNSLKPEDTAVYRCSTDCSLYGSTYSPDYWGQGTQVIVSS
B21: NB147 (VHH)
VHH: EVQVVESGGGVVQAGDSLRLSCVASGRTFSSVAMGWFRQAPGKEREFVAAISRSGGSAGYSDSVKDRSTISRDNAKNTVYLQMNSLKPEDTAVYFCAASELDFCSTLGCYDYWGQGIQVTFSS
B22: NB154 (VHH)
VHH: QVQLVESGGGLVQAGDSLRLSCAASGGTFSGYGMGWFRQAPGKEREFVAGISRHGGSTGYSSSVKDRFTISRDNAKNTVDLQMNSLKPEDTAVYHCAAALRPDYGDSYVYTSTSNYEYWGQGTQVTVSS
B23: NB173 (VHH)
VHH: QVQLQESGGGLVQAGGSLRLSCAASGRSFNSYAMGWFRQAPGKEREFVAAISQNGGTQGYAEAVKDRFTISRDNTNKVVALQMNSLKPEDTAAYYCAADGDASDISYAPPRDYEYDYWGQGTQVTVSS
B24: NB548 (VHH)
VHH: QLQLVESGGGLVQPGGSLRLSCTANGFSVGDYSMSWHRQPPGKEREVVATTARDSGSTFYAASVKGRFTISRDNAKNTVYLQMNSLKPEDTGVYYCRVNSQDYWGQGTQVTVSS
B25: NB153 (VHH)
VHH: DVQLQESGGGLVQAGGSLRVSCAASGRTFSSYGMGWFRQAPGKERELVAAITNTGLTYYADSVEGRFTISRDAAKNTVYLQMNSLEPEDTAVYYCNAGAPPPGGLGYDESDYWGQGTLVTVSS
B26: NB169 (VHH)
VHH: QVQLVESGGGLVPPGGSLRLSCAASGFTFSSYPMSWYRQAPGRKRDFVAMLTGAGGSTDYADSVKGRFTISRDNAKNTVYLQMNSLKPEDTAVYYCNAPAAMRDYGIDYWGKGTLVNVSS
B27: NB755 (VHH)
VHH: QVQLVESGGGLVQAGGSLRLSCVDSGRTFSSYGMGWFRQAPGKEREFVAAVNWRNTTAYYADSAKDRFTISSDNAKNTVYLQMASLKPEDTGVYYCRPYSDYVSYDPTEYDSWGQGTQVTVSS

Substitutions are numbered along the chain they refer to.

The first experiment concerns the target PD-1 (UniProt Q15116). As to the kind of experiment: ELISA, TG1 supernatant on coated PD-1, anti-c-myc HRP. For orientation: An ELISA detects its analyte on a solid surface through an enzyme-linked reagent.
For B1, the OD450, clone binding with PD-1 stood at 2.65 OD450.

For the molecule B2, the OD450, clone binding with PD-1 was determined as 3.05 OD450.

B3 yielded an OD450, clone binding with PD-1 of 2.17 OD450.

For the molecule B4, the OD450, clone binding with PD-1 is 3.39 OD450.

The molecule B5 yielded an OD450, clone binding with PD-1 of 2.62 OD450.

In turn, B6 had an OD450, clone binding with PD-1 of 1.3 OD450.

B7: the OD450, clone binding with PD-1 was 3.13 OD450.

As for B8, the OD450, clone binding with PD-1 turned out to be 1.03 OD450.

B9 returned an OD450, clone binding with PD-1 of 2.78 OD450.

Consider B10, for which the OD450, clone binding with PD-1 stood at 2.84 OD450.

B11: the OD450, clone binding with PD-1 came to 2.04 OD450.

B12 yielded an OD450, clone binding with PD-1 of 3.39 OD450.

The molecule B13 came in with an OD450, clone binding with PD-1 of 3.13 OD450.

In turn, B14 had an OD450, clone binding with PD-1 of 3.12 OD450.

B15: the OD450, clone binding with PD-1 was determined as 2.97 OD450.

Consider B16, for which the OD450, clone binding with PD-1 was 1.84 OD450.

B17 came in with an OD450, clone binding with PD-1 of 2.84 OD450.

B18 had an OD450, clone binding with PD-1 of 2.7 OD450.

B19 gave an OD450, clone binding with PD-1 of 1.36 OD450.

In the case of B20, the OD450, clone binding with PD-1 turned out to be 1.81 OD450.

As to B21, the OD450, clone binding with PD-1 is 2.63 OD450.

B22 registered an OD450, clone binding with PD-1 of 2.61 OD450.

As for B23, the OD450, clone binding with PD-1 turned out to be 2.97 OD450.

The molecule B24 yielded an OD450, clone binding with PD-1 of 2.13 OD450.

Consider B25, for which the OD450, clone binding with PD-1 came out at 3.29 OD450.

As to B26, the OD450, clone binding with PD-1 is 2.9 OD450.

Molecule B27 had an OD450, clone binding with PD-1 of 1.7 OD450.

For the next experiment, the target named is PD-1 (UniProt Q15116). As to the kind of experiment: blocking ELISA, clone supernatant, competitor PD-L1.hFc detected with anti-human Fc HRP.
Sequence of PD-1 (Q15116 25-170 limits assumed): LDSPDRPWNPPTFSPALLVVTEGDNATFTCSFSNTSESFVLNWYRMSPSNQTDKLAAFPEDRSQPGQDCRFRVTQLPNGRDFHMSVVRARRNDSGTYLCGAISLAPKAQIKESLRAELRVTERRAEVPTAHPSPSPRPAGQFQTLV
B1: the OD450, PD-L1 binding with PD-1 was determined as 2.24 OD450.

B2: the OD450, PD-L1 binding with PD-1 was found to be 2.17 OD450.

In turn, B3 gave an OD450, PD-L1 binding with PD-1 of 1.42 OD450.

In the case of B4, the OD450, PD-L1 binding with PD-1 worked out at 2.49 OD450.

B5 had an OD450, PD-L1 binding with PD-1 of 2.25 OD450.

With B6, the OD450, PD-L1 binding with PD-1 amounted to 2.25 OD450.

Regarding B7, the OD450, PD-L1 binding with PD-1 was 2.23 OD450.

Turning to B8, the OD450, PD-L1 binding with PD-1 turned out to be 2.47 OD450.

Consider B9, for which the OD450, PD-L1 binding with PD-1 was found to be 0.715 OD450.

The molecule B10 yielded an OD450, PD-L1 binding with PD-1 of 2.56 OD450.

In turn, B11 had an OD450, PD-L1 binding with PD-1 of 2.37 OD450.

With B12, the OD450, PD-L1 binding with PD-1 was 2.29 OD450.

B13 displayed an OD450, PD-L1 binding with PD-1 of 2.24 OD450.

As to B14, the OD450, PD-L1 binding with PD-1 came to 2.39 OD450.

In turn, B15 gave an OD450, PD-L1 binding with PD-1 of 2.34 OD450.

For the molecule B16, the OD450, PD-L1 binding with PD-1 amounted to 2.1 OD450.

B17 returned an OD450, PD-L1 binding with PD-1 of 2 OD450.

B18 registered an OD450, PD-L1 binding with PD-1 of 2.02 OD450.

Consider B19, for which the OD450, PD-L1 binding with PD-1 was 2.19 OD450.

Consider B20, for which the OD450, PD-L1 binding with PD-1 is 2.44 OD450.

The molecule B21 had an OD450, PD-L1 binding with PD-1 of 0.994 OD450.

The molecule B22 had an OD450, PD-L1 binding with PD-1 of 2.28 OD450.

The molecule B23 had an OD450, PD-L1 binding with PD-1 of 0.794 OD450.

For B24, the OD450, PD-L1 binding with PD-1 is 2.43 OD450.

Consider B25, for which the OD450, PD-L1 binding with PD-1 was found to be 2.05 OD450.

B26 came in with an OD450, PD-L1 binding with PD-1 of 2.13 OD450.

The molecule B27 returned an OD450, PD-L1 binding with PD-1 of 2.2 OD450.
